B1: rPSGL-Ig (glycosylated SEQ ID NO: 4), thiolated and bound to DSPE-PEG-maleimide on gas-filled microvesicles (Example 4) (Fc fusion)
chain: QATEYEYLDYDFLPETEPPEMLRNSTDTTPLTGPGTPESTTVEPAARPHTCPPCPAPEALGAPSVFLFPPKPKDTLMISRTPEVTCVVVDVSHEDPEVKFNWYVDGVEVHNAKTKPREEQYNSTYRVVSVLTVLHQDWLNGKEYKCKVSNKALPVPIEKTISKAKGQPREPQVYTLPPSREEMTKNQVSLTCLVKGFYPSDIAVEWESNGQPENNYKTTPPVLDSDGSFFLYSKLTVDKSRWQQGNVFSCSVMHEALHNHYTQKSLSLSPGK
modifications: glycosylated; amino groups thiolated with Traut reagent (2-iminothiolane) and coupled to DSPE-PEG-maleimide of the microvesicle envelope
notes: also called recombinant PSGL-Ig; dimPSGL-1
B2: Fr-1, purified fragment of rPSGL-Ig (SEQ ID NO:3), dimeric, thiolated and bound to DSPE-PEG-maleimide on gas-filled microvesicles (Example 6) (other)
chain: QATEYEYLDYDFLPETEPPEMLRNSTDTTPLTGPGTPESTTVEPAARPHTCPPCPAPEALGAPSVFLFPPK
modifications: glycosylated (fragment of glycosylated rPSGL-Ig); thiolated with SATA and deacetylated, then coupled to DSPE-PEG-maleimide of the microvesicle envelope
notes: Disulfide-linked homodimer, about 32 kDa by MALDI-ToF; also called dimeric Fr-1
B3: Monomeric Fr-1 (Fr-1 of SEQ ID NO:3 reduced with TCEP) bound to DSPE-PEG-maleimide on gas-filled microvesicles (Example 8) (other)
chain: B2 chain
modifications: glycosylated (fragment of glycosylated rPSGL-Ig); disulfide bonds reduced with TCEP, free cysteine thiols coupled to DSPE-PEG-maleimide of the microvesicle envelope
notes: also called reduced monomeric Fr-1

This note sets out measurements from US20130156706A1 (BRACCO SUISSE S A, published 2013).

The experiment concerns the target T1, mouse Fc P-Selectin (CD62P-Fc Chimera, from R&D Systems) (mouse, UniProt Q01102 42-709).
T1 construct: Bought reagent, coated in the flow chamber; also called mouse P-selectin; not shown: Fc part of the commercial chimera
T1 sequence (looked up): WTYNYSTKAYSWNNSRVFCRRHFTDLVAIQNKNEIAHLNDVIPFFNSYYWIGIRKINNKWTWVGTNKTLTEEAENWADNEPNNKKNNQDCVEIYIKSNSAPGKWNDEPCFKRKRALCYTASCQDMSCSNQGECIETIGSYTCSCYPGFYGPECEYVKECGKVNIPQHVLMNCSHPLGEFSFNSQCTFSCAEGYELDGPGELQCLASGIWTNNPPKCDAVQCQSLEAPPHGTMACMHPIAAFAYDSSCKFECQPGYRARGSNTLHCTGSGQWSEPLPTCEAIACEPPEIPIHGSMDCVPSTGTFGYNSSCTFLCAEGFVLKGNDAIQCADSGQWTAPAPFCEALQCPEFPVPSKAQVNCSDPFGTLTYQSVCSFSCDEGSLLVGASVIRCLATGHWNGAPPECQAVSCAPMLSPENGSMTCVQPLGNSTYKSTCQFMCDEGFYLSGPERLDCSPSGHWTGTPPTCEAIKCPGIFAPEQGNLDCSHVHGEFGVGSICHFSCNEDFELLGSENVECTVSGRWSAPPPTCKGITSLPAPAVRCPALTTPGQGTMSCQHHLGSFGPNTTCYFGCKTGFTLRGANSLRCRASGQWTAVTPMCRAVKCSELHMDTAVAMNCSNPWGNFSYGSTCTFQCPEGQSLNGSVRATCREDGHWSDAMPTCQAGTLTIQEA
Description: flow chamber adhesion of microvesicles on a mouse P-selectin-Fc coating. How it is done:
To test the effective binding, targeted microvesicles prepared according to comparative example 4 were injected in a flow chamber set up comprising a coating of mouse Fc P-Selectin (CD62P-Fc Chimera, from R&D Systems (Minneapolis, Minn., USA). Microvesicles (at equivalent number of 80×10⁶/400 μL TBS++) were injected through the flow chamber (FCS2, Bioptech, USA) in a bolus fashion and their adhesion onto the mouse P-selectin coating layer was assessed over a period of 10 min at a flow rate of 1.0 mL/min (shear rate of 714 s⁻¹) in the presence of 50% human plasma in PBS (v:v, Biomeda collected on citrate, ref. ES1020P, Stehelin & Cie AG). A quantitative analysis of microvesicles accumulation was performed by counting the number of microvesicles adhering in the observed area at 2 min intervals over the total 10 min infusion, using the image processing program Analysis FIVE (SIS, Germany). After 10 min, five pictures were taken randomly and the number of bound microvesicles was measured and expressed as the number of bound bubbles at 10 min (NBB). Each observed area was 183×137 μm, as measured with the aid of a stage micrometer. Measurement was performed between the middle and the exit of the chamber.
Similarly, suspensions of targeted microvesicles prepared according to example 6 (Fr-1 targeting ligand) and according to example 8 (monomeric FR-1) were injected in a flow chamber as described above, and their binding activity determined according to the above procedure.
In the case of B1, the binding result is on record as “binds”.

As for B2, the binding result was “binds”.

As to B3, the binding result was “binds”.
